Measured values reported in patent publication US20240270820A1 (ELANCO US, published 2024).

How the values were obtained:
[1] = target: T1, canine IL4 (Sino Biological Inc, Cat #70021-DNAE-5) (canine, UniProt O77762 25-132); assay: cell-based or functional assay
T1 sequence (looked up): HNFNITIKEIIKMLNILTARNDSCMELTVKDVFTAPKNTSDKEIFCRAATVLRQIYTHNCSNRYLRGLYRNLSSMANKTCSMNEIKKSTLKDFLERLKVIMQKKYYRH

[2] = target: T2, canine IL13 with C-terminal poly-His tag (canine, UniProt Q9N0W9 19-131); assay: BLI (Octet), summary sentence of Example 4
T2 construct: Expressed in 293 cells and purified from the supernatant
T2 sequence: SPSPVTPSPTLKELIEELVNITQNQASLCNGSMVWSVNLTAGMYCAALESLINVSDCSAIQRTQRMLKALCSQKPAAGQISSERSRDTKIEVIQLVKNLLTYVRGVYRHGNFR

B1: canine IL4R-IL13R-IgGB (Fc fusion)
chain: SGSVKVLHEPSCFSDYISTSVCQWKMDHPTNCSAELRLSYQLDFMGSENHTCVPENREDSVCVCSMPIDDAVEADVYQLDLWAGQQLLWSGSFQPSKHVKPRTPGNLTVHPNISHTWLLMWTNPYPTENHLHSELTYMVNVSNDNDPEDFKVYNVTYMGPTLRLAASTLKSGASYSARVRAWAQTYNSTWSDWSPSTTWLNYYEPGGGSGTETQPPVTNLSVSVENLCTVIWTWDPPEGASPNCTLRYFSHFDNKQDKKIAPETHRSKEVPLNERICLQVGSQCSTNESDNPSILVEKCTPPPEGDPESAVTELQCVWHNLSYMKCTWLPGRNTSPDTNYTLYYWHSSLGKILQCEDIYREGQHIGCSFALTNLKDSSFEQHSVQIVVKDNAGKIRPSFNIVPLTSHVKPDPPHIKRLFFQNGNLYVQWKNPQNFYSRCLSYQVEVNNSQTETNDIFYVEEAKCQNSEFEGNLEGTICFMVPGVLPDTLNTVRIRVRTNKLCYEDDKLWSNWSQAMSIGENTDPTPKRENGRVPRPPDCPKCPAPEMLGGPSVFIFPPKPKDTLLIARTPEVTCVVVDLDPEDPEVQISWFVDGKQMQTAKTQPREEQFNGTYRVVSVLPIGHQDWLKGKQFTCKVNNKALPSPIERTISKARGQAHQPSVYVLPPSREELSKNTVSLTCLIKDFFPPDIDVEWQSNGQQEPESKYRTTPPQLDEDGSYFLYSKLSVDKSRWQRGDTFICAVMHEALHNHYTQESLSHSPGK
notes: also called canine IL4R-IL13R-Fc; Canine IL4R-IL13R-Fc (SINK)
TF1 cell proliferation assay (CellTiter-Glo luminescence), IC50 by 4 parameter logistic fit [1]: 2 nM | binding result [2]: binds

B2: canine IL13R-IL4R-IgGB (Fc fusion)
chain: TETQPPVTNLSVSVENLCTVIWTWDPPEGASPNCTLRYFSHFDNKQDKKIAPETHRSKEVPLNERICLQVGSQCSTNESDNPSILVEKCTPPPEGDPESAVTELQCVWHNLSYMKCTWLPGRNTSPDTNYTLYYWHSSLGKILQCEDIYREGQHIGCSFALTNLKDSSFEQHSVQIVVKDNAGKIRPSFNIVPLTSHVKPDPPHIKRLFFQNGNLYVQWKNPQNFYSRCLSYQVEVNNSQTETNDIFYVEEAKCQNSEFEGNLEGTICFMVPGVLPDTLNTVRIRVRTNKLCYEDDKLWSNWSQAMSIGENTDPTGGGSGSGSVKVLHEPSCFSDYISTSVCQWKMDHPTNCSAELRLSYQLDFMGSENHTCVPENREDSVCVCSMPIDDAVEADVYQLDLWAGQQLLWSGSFQPSKHVKPRTPGNLTVHPNISHTWLLMWTNPYPTENHLHSELTYMVNVSNDNDPEDFKVYNVTYMGPTLRLAASTLKSGASYSARVRAWAQTYNSTWSDWSPSTTWLNYYEPKRENGRVPRPPDCPKCPAPEMLGGPSVFIFPPKPKDTLLIARTPEVTCVVVDLDPEDPEVQISWFVDGKQMQTAKTQPREEQFNGTYRVVSVLPIGHQDWLKGKQFTCKVNNKALPSPIERTISKARGQAHQPSVYVLPPSREELSKNTVSLTCLIKDFFPPDIDVEWQSNGQQEPESKYRTTPPQLDEDGSYFLYSKLSVDKSRWQRGDTFICAVMHEALHNHYTQESLSHSPGK
notes: also called Canis lupus IL13R-IL4R-Fc; canine IL13R-IL4R-Fc
binding result [2]: binds
